Legend:
Experiment in all cases: cell-based or functional assay
[1] = target: HIV-1 Env of pseudovirus BJOX015000.11.5 (HIV-1)
[2] = target: HIV-1 Env of pseudovirus ZM214M.PL15 (HIV-1)
[3] = target: HIV-1 Env of pseudovirus 6545.v4.c1 (HIV-1)
[4] = target: HIV-1 Env of pseudovirus T278-50 (HIV-1)
[5] = target: HIV-1 Env of pseudovirus QH0692.42 (HIV-1)
[6] = target: HIV-1 Env of pseudovirus 928-28 (HIV-1)
[7] = target: HIV-1 Env of pseudovirus ZM249M.PL1 (HIV-1)
[8] = target: HIV-1 Env of pseudovirus A07412M1.vrc12 (HIV-1)
[9] = target: HIV-1 Env of pseudovirus 6244_13_B5_4576 (HIV-1)
[10] = target: HIV-1 Env of pseudovirus X1632_S2_B10 (HIV-1)
[11] = target: HIV-1 Env of pseudovirus CNE30 (HIV-1)
[12] = target: HIV-1 Env of pseudovirus SC05_8C11_2344 (HIV-1)
[13] = target: HIV-1 Env of pseudovirus CNE20 (HIV-1)
[14] = target: HIV-1 Env of pseudovirus ZM135M.PL10a (HIV-1)
[15] = target: HIV-1 Env of pseudovirus Du422.1 (HIV-1)
[16] = target: HIV-1 Env of pseudovirus R1166.c01 (HIV-1)
[17] = target: HIV-1 Env of pseudovirus Ce2060_G9 (HIV-1)
[18] = target: HIV-1 Env of pseudovirus 263-8 (HIV-1)
[19] = target: HIV-1 Env of pseudovirus 1006_11_C3_1601 (HIV-1)
[20] = target: HIV-1 Env of pseudovirus PVO.4 (HIV-1)
[21] = target: HIV-1 Env of pseudovirus X2131_C1_B5 (HIV-1)
[22] = target: HIV-1 Env of pseudovirus Q769.d22 (HIV-1)
[23] = target: HIV-1 Env of pseudovirus 9004SS_A3_4 (HIV-1)
[24] = target: HIV-1 Env of pseudovirus WITO4160.33 (HIV-1)
[25] = target: HIV-1 Env of pseudovirus BF1266.431a (HIV-1)
[26] = target: HIV-1 Env of pseudovirus 6811.v7.c18 (HIV-1)
[27] = target: HIV-1 Env of pseudovirus P0402_c2_11 (HIV-1)
[28] = target: HIV-1 Env of pseudovirus MS208.A1 (HIV-1)
[29] = target: HIV-1 Env of pseudovirus 89-F1_2_25 (HIV-1)
[30] = target: HIV-1 Env of pseudovirus C4118.c09 (HIV-1)
[31] = target: HIV-1 Env of pseudovirus 1394C9G1(Rev-) (HIV-1)
[32] = target: HIV-1 Env of pseudovirus 6540.v4.c1 (HIV-1)
[33] = target: HIV-1 Env of pseudovirus T257-31 (HIV-1)
[34] = target: HIV-1 Env of pseudovirus BJOX010000.06.2 (HIV-1)
[35] = target: HIV-1 Env of pseudovirus TRJO4551.58 (HIV-1)
[36] = target: HIV-1 Env of pseudovirus ZM197M.PB7 (HIV-1)

## N49P6 (antibody)
[1]
  IC50: 0.07 µg/mL
  IC80: 0.312 µg/mL
  MPI: 100
[2]
  IC50: 0.51 µg/mL
  IC80: 1.8 µg/mL
  MPI: 100
[3]
  IC50: 24.5 µg/mL
  IC80: > 50 µg/mL
  MPI: 76
[4]
  IC50: 25.7 µg/mL
  IC80: > 50 µg/mL
  MPI: 67
[5]
  IC50: 0.652 µg/mL
  IC80: 2.28 µg/mL
  MPI: 100
[6]
  IC50: 1.24 µg/mL
  IC80: 5.6 µg/mL
  MPI: 99
[7]
  IC50: 0.112 µg/mL
  IC80: 0.376 µg/mL
  MPI: 100
[8]
  IC50: 0.229 µg/mL
  IC80: 0.786 µg/mL
  MPI: 100
[9]
  IC50: 0.095 µg/mL
  IC80: 0.328 µg/mL
  MPI: 100
[10]
  IC50: 23.1 µg/mL
  IC80: > 50 µg/mL
  MPI: 69
[11]
  IC50: 0.457 µg/mL
  IC80: 1.54 µg/mL
  MPI: 100
[12]
  IC50: 0.266 µg/mL
  IC80: 0.911 µg/mL
  MPI: 100
[13]
  IC50: 2.74 µg/mL
  IC80: 15.6 µg/mL
  MPI: 95
[14]
  IC50: 0.494 µg/mL
  IC80: 1.77 µg/mL
  MPI: 99
[15]
  IC50: 44 µg/mL
  IC80: > 50 µg/mL
  MPI: 57
[16]
  IC50: 0.102 µg/mL
  IC80: 0.344 µg/mL
  MPI: 100
[17]
  IC50: 0.888 µg/mL
  IC80: 4.81 µg/mL
  MPI: 100
[18]
  IC50: 0.116 µg/mL
  IC80: 0.438 µg/mL
  MPI: 100
[19]
  IC50: 0.068 µg/mL
  IC80: 0.209 µg/mL
  MPI: 100
[20]
  IC50: 0.128 µg/mL
  IC80: 0.357 µg/mL
  MPI: 100
[21]
  IC50: 0.174 µg/mL
  IC80: 0.72 µg/mL
  MPI: 100
[22]
  IC50: 0.072 µg/mL
  IC80: 0.318 µg/mL
  MPI: 100
[23]
  IC50: 0.181 µg/mL
  IC80: 0.817 µg/mL
  MPI: 100
[24]
  IC50: 0.096 µg/mL
  IC80: 0.277 µg/mL
  MPI: 100
[25]
  IC50: 0.083 µg/mL
  IC80: 0.283 µg/mL
  MPI: 100
[26]
  IC50: 0.238 µg/mL
  IC80: 1.01 µg/mL
  MPI: 100
[27]
  IC50: 3.54 µg/mL
  IC80: 19 µg/mL
  MPI: 99
[28]
  IC50: 0.11 µg/mL
  IC80: 0.436 µg/mL
  MPI: 100
[29]
  IC50: 33.6 µg/mL
  IC80: > 50 µg/mL
  MPI: 61
[30]
  IC50: 0.092 µg/mL
  IC80: 0.243 µg/mL
  MPI: 100
[31]
  IC50: 17.5 µg/mL
  IC80: > 50 µg/mL
  MPI: 80
[32]
  IC50: 14 µg/mL
  IC80: 47.5 µg/mL
  MPI: 81
[33]
  IC50: 0.147 µg/mL
  IC80: 0.535 µg/mL
  MPI: 100
[34]
  IC50: 0.681 µg/mL
  IC80: 3.53 µg/mL
  MPI: 100
[35]
  IC50: 0.255 µg/mL
  IC80: 0.874 µg/mL
  MPI: 100
[36]
  IC50: 3 µg/mL
  IC80: 12.4 µg/mL
  MPI: 98

## N49P11 (antibody)
[1]
  IC50: 0.288 µg/mL
  IC80: 1.28 µg/mL
  MPI: 100
[3]
  IC50: 6.47 µg/mL
  IC80: 22.9 µg/mL
  MPI: 100
[4]
  IC50: 7.63 µg/mL
  IC80: 25.1 µg/mL
  MPI: 100
[6]
  IC50: 5.46 µg/mL
  IC80: 25 µg/mL
  MPI: 100
[8]
  IC50: 2.52 µg/mL
  IC80: 12.9 µg/mL
  MPI: 100
[10]
  IC50: 9.73 µg/mL
  IC80: 26.1 µg/mL
  MPI: 100
[16]
  IC50: 0.06 µg/mL
  IC80: 0.336 µg/mL
  MPI: 100
[18]
  IC50: 0.064 µg/mL
  IC80: 0.259 µg/mL
  MPI: 100
[21]
  IC50: 5.36 µg/mL
  IC80: 18.4 µg/mL
  MPI: 100
[23]
  IC50: 0.296 µg/mL
  IC80: 3.24 µg/mL
  MPI: 100
[26]
  IC50: 3.68 µg/mL
  IC80: 14.6 µg/mL
  MPI: 100
[27]
  IC50: 0.091 µg/mL
  IC80: 0.698 µg/mL
  MPI: 100
[29]
  IC50: 4.24 µg/mL
  IC80: 16.6 µg/mL
  MPI: 100
[30]
  IC50: 0.094 µg/mL
  IC80: 0.346 µg/mL
  MPI: 100
[32]
  IC50: 3.05 µg/mL
  IC80: 16.3 µg/mL
  MPI: 100
[33]
  IC50: 0.7 µg/mL
  IC80: 2.9 µg/mL
  MPI: 100
[34]
  IC50: 6.81 µg/mL
  IC80: 21.8 µg/mL
  MPI: 100

## N49P7.1 (antibody)
[1]
  neutralization IC50: 0.111 µg/mL
  neutralization IC80: 0.487 µg/mL
  neutralization MPI: 100
[2]
  neutralization IC50: 0.257 µg/mL
  neutralization IC80: 0.853 µg/mL
  neutralization MPI: 100
[4]
  neutralization IC50: 42.4 µg/mL
  neutralization IC80: > 50 µg/mL
  neutralization MPI: 56
[5]
  neutralization IC50: 0.764 µg/mL
  neutralization IC80: 2.71 µg/mL
  neutralization MPI: 100
[6]
  neutralization IC50: 0.23 µg/mL
  neutralization IC80: 0.775 µg/mL
  neutralization MPI: 100
[7]
  neutralization IC50: 0.071 µg/mL
  neutralization IC80: 0.239 µg/mL
  neutralization MPI: 100
[9]
  neutralization IC50: 0.184 µg/mL
  neutralization IC80: 0.493 µg/mL
  neutralization MPI: 100
[11]
  neutralization IC50: 0.307 µg/mL
  neutralization IC80: 1.01 µg/mL
  neutralization MPI: 100
[12]
  neutralization IC50: 0.189 µg/mL
  neutralization IC80: 0.688 µg/mL
  neutralization MPI: 100
[13]
  neutralization IC50: 0.079 µg/mL
  neutralization IC80: 0.224 µg/mL
  neutralization MPI: 100
[14]
  neutralization IC50: 0.314 µg/mL
  neutralization IC80: 1.11 µg/mL
  neutralization MPI: 99
[15]
  neutralization IC50: 3.76 µg/mL
  neutralization IC80: 15.7 µg/mL
  neutralization MPI: 93
[16]
  neutralization IC50: 0.136 µg/mL
  neutralization IC80: 0.461 µg/mL
  neutralization MPI: 100
[17]
  neutralization IC50: 0.473 µg/mL
  neutralization IC80: 2.41 µg/mL
  neutralization MPI: 100
[18]
  neutralization IC50: 0.104 µg/mL
  neutralization IC80: 0.392 µg/mL
  neutralization MPI: 100
[19]
  neutralization IC50: 0.061 µg/mL
  neutralization IC80: 0.193 µg/mL
  neutralization MPI: 100
[20]
  neutralization IC50: 0.124 µg/mL
  neutralization IC80: 0.421 µg/mL
  neutralization MPI: 100
[22]
  neutralization IC50: 0.044 µg/mL
  neutralization IC80: 0.163 µg/mL
  neutralization MPI: 100
[23]
  neutralization IC50: 0.221 µg/mL
  neutralization IC80: 0.841 µg/mL
  neutralization MPI: 100
[24]
  neutralization IC50: 0.121 µg/mL
  neutralization IC80: 0.326 µg/mL
  neutralization MPI: 100
[25]
  neutralization IC50: 0.033 µg/mL
  neutralization IC80: 0.11 µg/mL
  neutralization MPI: 100
[27]
  neutralization IC50: 0.029 µg/mL
  neutralization IC80: 0.115 µg/mL
  neutralization MPI: 100
[30]
  neutralization IC50: 0.048 µg/mL
  neutralization IC80: 0.216 µg/mL
  neutralization MPI: 100
[31]
  neutralization IC50: 4.37 µg/mL
  neutralization IC80: 30.9 µg/mL
  neutralization MPI: 88
[33]
  neutralization IC50: 0.209 µg/mL
  neutralization IC80: 1.04 µg/mL
  neutralization MPI: 100
[34]
  neutralization IC50: 0.132 µg/mL
  neutralization IC80: 0.623 µg/mL
  neutralization MPI: 100
[35]
  neutralization IC50: 0.156 µg/mL
  neutralization IC80: 0.529 µg/mL
  neutralization MPI: 100
[36]
  neutralization IC50: 0.144 µg/mL
  neutralization IC80: 0.539 µg/mL
  neutralization MPI: 100
